The text below walks through data of the supplement of paper PMC12636428.

For this series, the system named is Saccharomyces cerevisiae. In words: transcriptional activation domain activity (GFP:mCherry ratio, weighted mean of sorted bins, harmonized to initial dataset scale) (arbitrary fluorescence ratio units); higher = stronger transcriptional activation. Conditions: beta-estradiol 1 µM; induction time 4 h. Put shortly: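 In diploid yeast carrying a GFP reporter, barcoded protein tiles fused to an estradiol-inducible synthetic transcription factor were integrated at the URA3 locus. Cultures diluted 1:5 into SC with 1 uM beta-estradiol were kept at 30 °C for 4 hours, then sorted by GFP:mCherry ratio into 8 bins before barcode sequencing. Tiles with under 50 reads were excluded. The activation activity reported here is the read-weighted mean of bin median fluorescence, averaged across barcodes and linearly rescaled to the initial dataset.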

Turning to “KVVQQFCGCHSRAANGCSGDELLRQYDYDEEDTVSSNRRFANETCRVAVLTVR”, the “transcriptional activation domain activity” value was 65900.
On to “PHGLLLPLLAHLFSLVLKISFLFCFEYKLAIFIFALVWQSLVVASLTCGFVFV”, for which the “transcriptional activation domain activity” value came out at 55700.
The value for “RLSTFYNLNLIRVLFRFLFTLPLLILAHDFLLMLGALGCFVSSCITLLIFFPR” was 63000.
Turning to “EAGREAGKAGREEKQVKQDEERTAEDTETGKHEEDRNGEQKQRDRKTRRGKIR”, the “transcriptional activation domain activity” value came to 25300.
For “HWSYARNANMIVNFFYKNIMGIGVLWWFQIYCGWSTTYVFEYTYLLFWNVFWS” the value was 56200; for “RPSGASTPVQPTPEPDNKKRRRGKGGDDAETDGKPVKKAKRGRKPKVVQEPKV”, 33200; for “HLLKWCNFGLLPHWLFHILILVSKSSLNNLIIAYVYCPLFFGCFLPSTYISCN”, 58200.
The value for “SISFIGHRMMFWFFACVGLACLFMAGALAVMCLHYLLMIFLFYLRCYPPYLGS” was 31900; that for “SSHCLLENDMFVFFANCSVNQLAMGEDMHHILRLCYSAELIKVLLTYLGRSTF” was 56400.
Regarding “AFLLFLIYLTFFCWVCFATSATWVWSEILSDNQYTESFMPINDVLLAVLSGII”, the “transcriptional activation domain activity” value came to 38700.
The value for “SGICRLTFSFSTLFFNPDPSFSFFLSFFFLFFFSFLLLSFLLNLFPFLDFFFF” was 24000.
For “KFQERMMVLKEIKLISLGDVRKITYSRMGYTDWKIVVLGRMWNLRFFVATGWD” the value was 64400.
For “GNEREQREGRREKNGRGEKGKKEERRGRKKRGGGWKRVRRENQARKQGEKGEQ” the value was 38100; for “ILPRWIQVAITFVALLAVSCIVMVVGLIVKYWTLSVSFGHFLSRFAVLRYIVL”, 58500; for “MFLEGVLQFVFFFFFFFPVYLSTFIFKFLAVGFLGSYLFLLVQLMQLIHSLIL”, 31900.
As for “GIYAFGKMYFIPYLLSNHWVVMLTYLQHSDPTIPVYRRGQWSFVRGALSTIDR”, the “transcriptional activation domain activity” value came to 41800.
Turning to “FDYDMFFRDSSKEGNNLFGEFLEDDDDDKKAANMSDDESSLIKNQLINEEPEL”, the “transcriptional activation domain activity” value was 41400.
With “PVKAIEAPLAEEKSEEKEAEPEKAEEAEEEVTEKPAAKKAKGGKKGAKGKKVK”, the “transcriptional activation domain activity” value amounted to 46800.
For “MAAGFFFFFFLLSFPLFLSFFFCFPFFFSLPSGISFCLPFAPGVVSSFPFPTR” the value was 53800.
“ASEAAVKEESASPAAKKSKKDKKPAKGSSDSVEAPVAEATPKTKKTAKANGAV”: the “transcriptional activation domain activity” value was determined as 28000.
For “FGESCAGVLPVTMYDNRLNRHSEHHGKNVYEKMVSGRYLGELVRWILVELLDR” the value was 54500; for “YLINLLYQLLWLVPFSAPLSLRSTLAKVYEFGGVHSGSAICSVLWFILLTVFL”, 64900; for “WSVVFPLQEEEKKKNEEEGLAFPSLDNIKGILRPDSCMRLGSSANIVVLTFPD”, 53600.
The value for “AQEAIAEQGEERGDGAGQEKAPVGKRAAEDPAAAPRGSAKRKADKGERSGAEQ” was 7850; that for “MLLVSLVRVVHGFTVQQYIYTGQWLLYISLIFFLLHFPLVMKPITFLTILCLA” was 55100; that for “MSTWLLRVFFSTCLYIIIWFFFHSFPFLSFFLPCLCCMFFFLACCLVSLSRVL” was 35200.
As to “VGSLVYVTRYSEHLLVSGEFGPELLGAGAYYGGMLWFFFSSQNYRLLFHWQFW”, the “transcriptional activation domain activity” value stood at 49800.
For “SDSEEEDDAEKEDEEEEQRPKKTVKVEEVVKKAFGADGATVWVGQLSYEATSD” the value was 32500; for “GDAHAAPKGRKGGGKKRKAADEDGEEEGEAEKPAKKAGKRGKKGKATPTQEEG”, 12100; for “MYQIEALYLILTYKSIPFYHFNYFSIELIIKPTYLFLYLFFSYLFLHWLNLFD”, 35100.
For “LQLYLSSHHREMLVDIWDRLWPWMVFFHVNRGCIADPFMLRPHPCFNLLHFIV” the value was 65600; for “GHSTSTFNTYDEVVSRPFISLDMLHLNRGANANTHPSHNAKLESECDSSSHSD”, 38700; for “YFVVRGFLFSSAVGCLGLRLGLGLFKRVIYWDQKLLLFLFLFPFFFPPLFSTR”, 60900.
The value for “RKSAATEEKEEKKEAPKAKRAKKAKEPEPEVEAEAEAAAEKVEEVKEKKKPGR” was 24800.
Turning to “YTRCEVIYLKRSLPSYFGPSMLQFTILFILIVTNSIVLLGLFLLLCRTLWGLA”, the “transcriptional activation domain activity” value came to 19500.
The value for “GGGGGVGGEKGEEGGGEEEEDEEEEEEEGEEDEEEEGGGAAAKEKGKGKGKGK” was 8640.
For “MPSFFLFFLFFFLLSQCFLVLCHVCIGLVSFSSLSFFFFFPYSTFFSPLPFFL” the value was 61700; for “NLRVIELRFSLRFYRDVVFCRKLLRKHEVFVTIIKLLLCLLTLDIEGLKIKVG”, 46500.
The value for “SRLTHVLLCYRQSLLVTVYSHLLLLDQSSQVWWRWMSIFFTLIMWSIELLISS” was 57600; that for “GMFDGVYTGLGVKLPVDKLERYSAAEIAIMSWRVVYLYYWISFCILILCFILF” was 69900.
For “MVHFLVTLPYFILQCLTWLLRFHFFLPCLTFLLCFHLFFGTSLLLSFSMFSWA”, the “transcriptional activation domain activity” value amounted to 50300.
With “MPNAGIWCARWFIPLLFLPLPSASPYFLTVFIFSLIVQARPCFYCILMLTALF”, the “transcriptional activation domain activity” value turned out to be 58200.
For the sequence “VKFRFLTYSRWLVLILYVFSWSFTIISMLLVTTNNANFTSCFLSIMVCDIFYS”, the “transcriptional activation domain activity” value came to 71700.
Regarding “FCYVVVLGRVLIRFGGYQVLTLWRSCMRRLPKLGDSIWSRVFLRCVSCMSLFL”, the “transcriptional activation domain activity” value is 62000.
For “MVVFLYLVIYHWSKVNRVSFRCAAFCCIAHLIENVFFVIMVKVKGPSKFCAGI”, the “transcriptional activation domain activity” value was found to be 76900.
For “IDSEAEDASRNGKIPKGKKSKKNHCESETEEVIEKQPASTTQKSSKKKHCMRK” the value was 19600; for “MLLYTFILIVHIHRDLGSIDFVWKARNETASLRQRYLAVNYQLLFGVIKYLWA”, 33400.
For the sequence “DLMMVVFGVLLSSLFFVFVFVWYCYLLLSCFLSFFLSLVVSWCWLGLHIHVYS”, the “transcriptional activation domain activity” value is 43500.
For the sequence “SLLMLLFIRGWFSYLIAVVSISGVLVLHMLYFLLQWRLKYILWLLLHCSIAIP”, the “transcriptional activation domain activity” value stood at 79500.
The value for “NPERRTGGRGGEGEKGRRREERDAGNRRRGGRNRAQRPKKGRRREGGRRGRGR” was 48800; that for “GSETTQEQRNIEGTDHGSGGGGGGSGEGGGGNEGGGGGGGGGSGGGGKGGGGE” was 30000; that for “PSEEKTVQKPDTAVAPPEDKAEPTPDATKPKEKKSRKKSKKAAEEKADGASTS” was 25300.
The value for “SHQVLSCLAIFVFPRLAFITLSDNLLILSLRSMMSDFVFLMLLGAWCFLGFLY” was 55200; that for “LTVLGWLSTRKNMSFKSTPSNIRQSLKYSHIPLCLFYSSFTKFFLLLLLSIWD” was 42100.
With “ALCSIAGLACFILFCFLRVRWPAMYAPRLNMKKHAPQPLPNSFLGWIVPVLRT”, the “transcriptional activation domain activity” value worked out at 67400.
For “TLFTGMHKNIIRLLPYRVARILYILLRVVRPVELMPILKFWIPVGNNKANAAV” the value was 40700; for “SSPVVVSKIEDKNTEDKGADVKKTEESKKEEKTEVKQESKPEEKAEAKSEEKK”, 29300; for “ESDEEAAVEAEAPKKKGRAKKVKPESEVDHEPAFEQPKKKGRAAKAKIQPAEE”, 15400.
For “MLRVIVLLIVIDHLLYLPWLYFATYNARLLSCQSSTGRIYIERNCHSHSYGDK” the value was 50700.
“FFFFLLFCFSFLYRLLSLYLFLFPFDFFFFSPWFCSNSRFYLRFVSFFPFFFF”: the “transcriptional activation domain activity” value turned out to be 50200.
For “FVGFVGSLKRQFLRQQFGLFCWVHMSLLLIVCASHFVMNNILEGMIWFWVPAS” the value was 60400; for “MLQIRSFVIAAFALPLCLLFCFFTLPFFALCPFLLYFPSFSILLLRLMLHLLV”, 49200.
The value for “NPSSAPAQTATTAASGTPSLFGSKPAQATGAPSSLFGGQPAAASTGASTQATP” was 24200; that for “MEWMGGWLVLGGWIYLFCSVMFKLDRLVVFLEVFFFYLLLCVIVLVMGLVVML” was 38800; that for “IMCQWVKNLKERLLKMPPALRICLADHVLKFVIPKLHILGHLKLCQELFSLLY” was 47100.
For “MKEPVDDNVLQEPVPFEDFKFSFGMDPDFSFPLEPTLPTPQLSFMQDPFLLFP” the value was 116000; for “ALKILVLLVFIMDTLHTYGIISYQWGLFLYCHHNASFACLSDLPWEVFMCVAL”, 41200; for “DRNYKRVAKQVGFTIDRKRGDDLRHFPIERARLEIIWPLLYTGLACILCYGWA”, 70900.
On to “INSTIHNLCELAILPDLCGICCFSMRFFVYLDLIGTLILPSTVVYLVWLIIQV”, for which the “transcriptional activation domain activity” value came to 82700.
For “HWDGVCRLFFFIYYIYFYFSMRACLLVLILCFESIVFGLVSFLVYLFSPFFFR” the value was 40900; for “TCRLSSPHLWWLTFGILCVLYLMVLEIFLLGLLVFFVGPLFYLFWNVVLLCLG”, 79500.
The value for “AYTATNVGIPFNRAMDHLHRMMSRFEYCIFEGTSLPVFGIIGLQVRCQWLGCS” was 73700; that for “LDFLDLWTFWPWTFWPWTFWTVGLFGLLALDLLALDFLDLWTFWPWTFWPWTF” was 60400.
For “MCYQGQHVYLNHEVFAQSLLAVGFARCQVRLMWVAGIRPIVRVSTNNFLGSIR” the value was 44800.
